Data on two molecules can be found in article PMC8408231, “The basic helix-loop-helix transcription factor TabHLH1 increases chlorogenic acid and luteolin biosynthesis in Taraxacum antungense Kitag”.

This data set has as its target T1, TabHLH1 (Taraxacum antungense Kitag, UniProt A0A482LNV1 1-521).
T1 sequence: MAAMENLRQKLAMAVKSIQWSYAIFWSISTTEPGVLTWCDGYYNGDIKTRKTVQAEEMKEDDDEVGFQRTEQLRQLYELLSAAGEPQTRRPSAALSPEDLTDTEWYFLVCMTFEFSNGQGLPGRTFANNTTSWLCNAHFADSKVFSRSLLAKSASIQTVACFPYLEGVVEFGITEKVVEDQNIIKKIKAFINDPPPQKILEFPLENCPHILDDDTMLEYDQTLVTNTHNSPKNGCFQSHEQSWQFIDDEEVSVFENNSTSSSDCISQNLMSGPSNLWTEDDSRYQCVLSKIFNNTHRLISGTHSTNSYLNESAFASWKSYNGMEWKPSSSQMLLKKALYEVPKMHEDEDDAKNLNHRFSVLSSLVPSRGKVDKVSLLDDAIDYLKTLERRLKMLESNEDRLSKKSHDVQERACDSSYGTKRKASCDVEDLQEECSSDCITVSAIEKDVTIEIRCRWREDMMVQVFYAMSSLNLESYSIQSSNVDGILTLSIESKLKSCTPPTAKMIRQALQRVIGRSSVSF
The data set is described as follows: EMSA; unlabeled identical cold probe used as control; EMSA binding buffer (Beyotime, 10x stock), 25 °C, 30 min; salt and pH not stated. To be noted: protein: recombinant; tags: GST (pGEX4T-1); chain copies: 2; label: 3' biotin on both strands; blunt.

B1: Ta4CL promoter E-box probe (dsDNA)
DNA 1: TGGCCAAAATCCCATGTGATTTCGGCCCAC
DNA 2: GTGGGCCGAAATCACATGGGATTTTGGCCA
In the case of B1, the binding result is “binds”.

B2: TaHQT2 promoter E-box probe (dsDNA)
DNA 1: CGAACGGAGGAACATGTGTGCTCTGAAAAT
DNA 2: ATTTTCAGAGCACACATGTTCCTCCGTTCG
With B2, the binding result was “binds”.
